Source: the RNAGym collection of RNA variant scans (doi:10.1073/pnas.2313332121)
Variants at the floor of the assay were thinned out.

B1: TPR 5TU (parent)
chain: GGAUCUUCUCGAUCUAACAAAAAAGACAAAUCUGCCACAAAGCUUGAGAGCAUCUUCGGAUGCAGAGGCGGCAGCCUUCGGUGGCGCGAUAGCGCCAACGUUCUCAACUAUGACACGCAAAACGCGUGCUCCGUUGAAUGGAGUUUAUCAUG

Variants of: B1
Experiment: polymerase ribozyme fitness, log enrichment relative to wild type (log ratio); higher = more active; in vitro selection for triplet polymerase activity
Procedure, shortened: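 One round of in vitro selection, in triplicate, was applied to PCR-built, transcribed mutant libraries of each subunit of a heterodimeric triplet polymerase ribozyme. The steps were annealing with a biotinylated primer, partner subunit and triplets, incubation frozen at −7 °C, gel excision of extended constructs, streptavidin-bead capture and RT-PCR. Fitness is the logarithm, base 2, of genotype enrichment over wild-type enrichment from inverse-variance-weighted replicate averages of Illumina-sequenced inputs and outputs, keeping genotypes with ≥10 input reads and ≥1 read per output.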

Row | Variant | polymerase ribozyme fitness (log ratio)
1 | C51U G84A C96A C149U | -2.56
2 | A52G G141A | -1.24
3 | A52U A73G U102C | ≤ -4.2
4 | A52C G80C | ≤ -4.2
5 | C51G U56A | -2.67
6 | C51U G83C A106G A122U A142U | ≤ -4.2
7 | A52G G86A | -0.796
8 | A52G C75A U82A C95A | ≤ -4.2
9 | A52C U56A G67C G84A U139G U144A | ≤ -4.2
10 | C51U C95U U104G U144A | -2.33
11 | A52G U82A | -0.467
12 | A52G U53C G58A A142C | -3.35
13 | C51U A60U G84A A98G A121C G143U A147C | ≤ -4.2
14 | A52G C87U C93U C131A G136A G143C U145G U146G | ≤ -4.2
15 | C51U G81C C87U C116A G124A U134A U148A | ≤ -4.2
16 | A52G G83U U101A A115U | -3.39
17 | A52C U55A U56A G86C | -4.01
18 | A52G C96U A122U | -0.85
19 | C51U C131G | -3.49
20 | A52C A122G | -1.4
21 | C51U C72U G92C A98G U127G A138C G140A | ≤ -4.2
22 | C51U U53A C93A G124U | -3.59
23 | A52G U56C C93A | -2.44
24 | A52C U77G C79U C87A C95U | ≤ -4.2

Row | Variant | polymerase ribozyme fitness (log ratio)
25 | C51G C87A C93G C105A A113U | ≤ -4.2
26 | C51U G83U | -0.266
27 | A52G G67U A142G | -3.52
28 | A52G G88U | ≤ -4.2
29 | A52C U53A G86A C87U C105A A106U | ≤ -4.2
30 | A52C A89U C96G G141U | -1.47
31 | A52G U55A G92U | -0.803
32 | A52C G68A G94C C99U C108G A120C G143C | ≤ -4.2
33 | A52G U78C | -0.764
34 | C51U C75G G88A U130A | ≤ -4.2
35 | C51U A73U C118G A119C | -1.81
36 | C51U G84A | -0.489
37 | C51U G84U | -1.52
38 | A52G A89U G124U G136C | -3.18
39 | A52C A60G | -0.764
40 | A52G U104G | -1.26
41 | A52G C85A G140U | ≤ -4.2
42 | A52C U53A | -3.29
43 | C51U A73G G92U G124A | -0.37
44 | A52C C96U U130A U144G A147C | -3.6
45 | A52G C54G G67C G81A C95G | -3.86
46 | A52G C114A | -3.48
47 | A52G U53A A89C C93U | -2.02
48 | A52G C75A G84U A110U | ≤ -4.2

Row | Variant | polymerase ribozyme fitness (log ratio)
49 | C51U C87U A121U | -0.813
50 | A52C C87A G92C G141A | ≤ -4.2
51 | A52G C54A | -0.998
52 | A52G A73U G84A | -2.15
53 | C51U C87U | -1.13
54 | C51U C87A | ≤ -4.2
55 | A52G C96U | -1.46
56 | C51G G80U G94U | ≤ -4.2
57 | C51U A52C U82G U135G | -3.54
58 | A52C U148A | -4.18
59 | A52C C96G | -1.36
60 | A52C C96A | -1.55
61 | A52C G58U G59A C85A | -2.15
62 | C51G U56A A89U A119C C129U | ≤ -4.2
63 | C51U U82A C95U | -1.29
64 | A52C C69A C96A | -3.18
65 | C51U G92U | -1.86
66 | A52G U109G A122U | -1.46
67 | A52C U55C G83A U151A G152A | ≤ -4.2
68 | C51U A52G | -1.18
69 | A52C G70A U90G A106U | ≤ -4.2
70 | C51U C54U C76A G86A | -2.96
71 | A52C C54A A89G G117A | -3.55
72 | A52C A110G A150G | -3.86

Row | Variant | polymerase ribozyme fitness (log ratio)
73 | A52C G83U A106G | -2.56
74 | A52C G74C C108U A113G U145G | ≤ -4.2
75 | C51G C76A C87U | ≤ -4.2
76 | C51U U55A C76A U90C C96G G100A U101G | ≤ -4.2
77 | C51U C69A G84U A91G G133A U144A A147U | ≤ -4.2
78 | C51U C85G A115C | -1.9
79 | C51U U56A A73U G86A | -4.02
80 | C51U C57A G83C A106G | -0.97
81 | C51U U53A C96G G124U A147U | -3.84
82 | A52C C57U C63A C72G U77A C85A A107U A122U G136C U148A | ≤ -4.2
83 | C51U U61C C76U G94C A121U C125G U145A | ≤ -4.2
84 | A52C C57U G133U | ≤ -4.2
85 | A52G U53A C57A A73U C87G C93A C132U A150C | ≤ -4.2
86 | A52C C85G C87U G133A G143C | -4.07
87 | A52C C85U G94C G141C | -3.45
88 | C51U U78G C96U | ≤ -4.2
89 | C51U A52G A60U A66G C103U A107U C114U C123G G143A | ≤ -4.2
90 | C51U U55A U56A G58C U82A A150C | ≤ -4.2
91 | C51G C63U C116U U139C | ≤ -4.2
92 | A52G C57G A73U G84A | -3.44
93 | A52G G84A C116G | -2.02
94 | A52G G58U C87U | -2
95 | C51U C93U | -2.53
96 | C51U C93A | -2.34

Row | Variant | polymerase ribozyme fitness (log ratio)
97 | C51U A73G C96G C123U | -0.999
98 | A52C G67C A89C A106G A107G | ≤ -4.2
99 | A52G U56A | -0.876
100 | A52G U56G A60C C85G G143U | ≤ -4.2
101 | C51G U56A A106U | ≤ -4.2
102 | C51U G70U G88A G94U A106C | ≤ -4.2
103 | C51U G59A C85G A137U | ≤ -4.2
104 | C51G G83U A110C G140C | ≤ -4.2
105 | A52G U102G G124A | -3.08
106 | A52C A113U | -3.88
107 | A52C A113C | -3.36
108 | A52G C57G C87U | -1.27
109 | A52G C103U | -1.06
110 | A52C C116G | -1.21
111 | C51U G65C C87U | ≤ -4.2
112 | C51U A73G G92U | -0.595
113 | C51U C96U C105U | 0.0676
114 | A52G A66C C85A A110C | ≤ -4.2
115 | C51U C75U C118U | -1.3
116 | A52C G83C C87U A122G | ≤ -4.2
117 | C51U C93G U130C U145A | -3.53
118 | A52G U53A C54U C93G G112U | ≤ -4.2
119 | C51U A89C C96U A142U | -2.78
120 | A52C G84A G88C | -4.09

Row | Variant | polymerase ribozyme fitness (log ratio)
121 | A52C A91U U148A | ≤ -4.2
122 | A52G A121C | -0.337
123 | A52G G83C C105A | -2.55
124 | C51U G67A C72A C123U C132A U134C | ≤ -4.2
125 | C51G C125U U144C | -4.07
126 | A52C A91U C93A G133C | ≤ -4.2
127 | A52G C85U G86U C118G U144C C149G | ≤ -4.2
128 | C51U A89G A97G G143U | -3.43
129 | A52C C93G | -3.65
130 | C51G C85U U144G | -1.3
131 | A52G U78C A89U | -1.24
132 | C51U U56A A73U U78G A91U G141C G152A | -3.97
133 | C51G C87A | ≤ -4.2
134 | A52G G84A | -1.03
135 | A52G G84U | -1.32
136 | A52C U55A G62C G84A C105U C114U G141A C149A | ≤ -4.2
137 | A52C U55G G58C G59A A66C | ≤ -4.2
138 | C51U C85U C96G A119C G141A | -2.65
139 | A52G C93U C116U | -1.48
140 | A52C G81A G86U | -2.1
141 | A52C C69G G84U A115C | ≤ -4.2
142 | A52C C99G | -4.11
143 | A52C C99U | -1.81
144 | A52C G94C A106G | -1.86

Row | Variant | polymerase ribozyme fitness (log ratio)
145 | A52C U53A G65A A66C C79U C149U | ≤ -4.2
146 | C51U C69U C96G | -3.06
147 | C51G C75U C79A G80C C87A A98U C103G U145G | ≤ -4.2
148 | C51U C116U A121C G152U | -3.78
149 | C51U U56G A73C C79G C93G A137C | ≤ -4.2
150 | A52C C85A A121G | -1.8
151 | C51U C95A A98U C116G | 0.822
152 | C51U C96G U144A | -1.45
153 | C51U C87G C93G C105G A106C A113G | ≤ -4.2
154 | C51G C79G C96G | ≤ -4.2
155 | A52C G70C C85U G94C C129A | ≤ -4.2
156 | C51U U56A | -0.892
157 | C51G C79G G86U C114U U134A | ≤ -4.2
158 | C51U A89G G141U | -0.598
159 | C51U C93A A150U | -0.998
160 | C51U G94C | -0.484
161 | C51U G94A | -1.11
162 | A52C A98U | -0.983
163 | A52C U101G | -1.56
164 | A52G A98U | -2.02
165 | A52G C125U | -0.198
166 | A52G A60G C75U G88U G92A C95U C116U | ≤ -4.2
167 | C51U G62A U139G | -0.262
